Here are results for two molecules from PMC7010609 (2020).

The term kon denotes the second-order rate constant of association. As a reminder, the Kd is the free concentration of one partner at which half of the binding sites on the other are occupied at equilibrium, for simple one-to-one binding. What is called koff is the first-order rate constant of dissociation. Read a high koff as a short-lived complex.

Common to all, as to test: Biolayer interferometry (BLItz)
The target of test [1] is Xenopus laevis StrepII-FANCD2. The note with it: StrepII-FANCD2-loaded biosensors in 20 ng/mL solution; FANCI 62.5-1000 nM.
Test [2] addresses T1, Xenopus laevis StrepII-FANCD2.
T1 chain: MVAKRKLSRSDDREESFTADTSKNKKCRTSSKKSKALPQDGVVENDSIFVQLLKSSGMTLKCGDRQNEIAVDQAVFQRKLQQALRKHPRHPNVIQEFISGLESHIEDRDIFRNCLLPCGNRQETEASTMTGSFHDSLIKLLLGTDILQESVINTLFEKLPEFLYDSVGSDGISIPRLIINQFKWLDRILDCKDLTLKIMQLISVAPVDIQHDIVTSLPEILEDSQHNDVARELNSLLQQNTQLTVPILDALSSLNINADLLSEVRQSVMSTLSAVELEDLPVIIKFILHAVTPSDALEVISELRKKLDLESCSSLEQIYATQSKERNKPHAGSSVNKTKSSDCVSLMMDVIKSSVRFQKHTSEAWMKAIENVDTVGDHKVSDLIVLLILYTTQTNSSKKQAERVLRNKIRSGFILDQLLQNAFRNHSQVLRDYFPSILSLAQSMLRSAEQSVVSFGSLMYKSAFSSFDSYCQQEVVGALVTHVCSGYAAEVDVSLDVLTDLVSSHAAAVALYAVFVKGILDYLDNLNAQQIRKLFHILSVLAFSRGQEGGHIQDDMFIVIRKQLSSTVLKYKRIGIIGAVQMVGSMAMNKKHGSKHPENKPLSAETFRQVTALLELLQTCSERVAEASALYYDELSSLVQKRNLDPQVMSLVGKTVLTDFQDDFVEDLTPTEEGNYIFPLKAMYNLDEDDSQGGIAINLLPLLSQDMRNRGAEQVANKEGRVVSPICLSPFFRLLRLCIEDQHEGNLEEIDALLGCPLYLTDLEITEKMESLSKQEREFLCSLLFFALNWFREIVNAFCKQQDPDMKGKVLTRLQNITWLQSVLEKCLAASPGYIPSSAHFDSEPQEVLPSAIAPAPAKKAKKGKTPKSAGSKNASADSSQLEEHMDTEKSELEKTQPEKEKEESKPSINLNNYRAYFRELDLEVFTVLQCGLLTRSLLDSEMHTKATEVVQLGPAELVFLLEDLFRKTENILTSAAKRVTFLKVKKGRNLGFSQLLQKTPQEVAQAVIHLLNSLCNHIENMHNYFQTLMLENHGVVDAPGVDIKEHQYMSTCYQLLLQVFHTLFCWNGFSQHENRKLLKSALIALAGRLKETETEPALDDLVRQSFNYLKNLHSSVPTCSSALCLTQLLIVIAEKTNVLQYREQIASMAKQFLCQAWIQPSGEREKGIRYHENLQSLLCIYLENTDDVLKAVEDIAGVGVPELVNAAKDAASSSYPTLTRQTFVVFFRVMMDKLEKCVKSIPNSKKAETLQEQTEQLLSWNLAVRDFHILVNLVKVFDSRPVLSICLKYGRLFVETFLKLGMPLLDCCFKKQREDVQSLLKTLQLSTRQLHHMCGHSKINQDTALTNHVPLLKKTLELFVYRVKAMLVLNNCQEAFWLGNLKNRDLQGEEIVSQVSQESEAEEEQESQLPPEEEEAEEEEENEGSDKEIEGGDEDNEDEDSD
The note with it: chain shown with the change; StrepII-FANCD2-loaded biosensors in 20 ng/mL solution; FANCI 62.5-1000 nM.

The target of test [3] is T2, Xenopus laevis StrepII-FANCD2 (Xenopus laevis).
T2 chain: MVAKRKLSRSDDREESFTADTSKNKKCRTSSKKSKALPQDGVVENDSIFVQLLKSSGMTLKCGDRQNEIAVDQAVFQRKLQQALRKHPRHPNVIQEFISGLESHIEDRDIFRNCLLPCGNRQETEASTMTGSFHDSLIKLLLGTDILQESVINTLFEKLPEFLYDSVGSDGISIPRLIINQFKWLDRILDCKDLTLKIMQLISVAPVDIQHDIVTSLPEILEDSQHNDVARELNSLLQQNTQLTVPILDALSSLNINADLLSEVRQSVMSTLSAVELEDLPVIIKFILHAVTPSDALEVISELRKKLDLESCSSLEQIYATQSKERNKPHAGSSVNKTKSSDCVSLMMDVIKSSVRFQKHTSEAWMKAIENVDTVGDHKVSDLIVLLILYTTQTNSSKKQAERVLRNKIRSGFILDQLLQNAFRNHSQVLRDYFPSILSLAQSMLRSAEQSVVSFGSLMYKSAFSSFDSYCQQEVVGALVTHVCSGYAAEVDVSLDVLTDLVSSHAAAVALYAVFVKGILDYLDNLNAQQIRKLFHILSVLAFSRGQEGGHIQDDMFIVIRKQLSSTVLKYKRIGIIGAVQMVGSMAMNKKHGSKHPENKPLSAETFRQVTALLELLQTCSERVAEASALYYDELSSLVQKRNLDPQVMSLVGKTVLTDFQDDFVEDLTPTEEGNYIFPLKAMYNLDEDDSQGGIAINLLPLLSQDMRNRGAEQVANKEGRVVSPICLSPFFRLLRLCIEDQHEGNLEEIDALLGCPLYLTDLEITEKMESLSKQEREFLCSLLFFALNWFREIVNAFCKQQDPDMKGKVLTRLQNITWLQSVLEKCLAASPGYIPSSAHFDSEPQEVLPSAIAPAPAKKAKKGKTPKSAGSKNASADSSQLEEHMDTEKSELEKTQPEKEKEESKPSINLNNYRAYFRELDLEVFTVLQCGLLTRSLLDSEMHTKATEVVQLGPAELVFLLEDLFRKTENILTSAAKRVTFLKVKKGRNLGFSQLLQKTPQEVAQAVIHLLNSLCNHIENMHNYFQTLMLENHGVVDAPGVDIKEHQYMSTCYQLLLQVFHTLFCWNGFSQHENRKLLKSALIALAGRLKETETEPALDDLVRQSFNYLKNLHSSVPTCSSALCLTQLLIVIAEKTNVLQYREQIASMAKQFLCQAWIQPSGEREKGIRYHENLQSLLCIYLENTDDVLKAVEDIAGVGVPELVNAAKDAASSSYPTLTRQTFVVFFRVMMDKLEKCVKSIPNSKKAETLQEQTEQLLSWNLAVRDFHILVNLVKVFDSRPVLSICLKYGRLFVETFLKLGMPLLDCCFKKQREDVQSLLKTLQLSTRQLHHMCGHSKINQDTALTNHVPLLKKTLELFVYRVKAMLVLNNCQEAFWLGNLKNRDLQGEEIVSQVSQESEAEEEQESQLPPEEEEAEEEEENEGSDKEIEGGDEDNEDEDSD
The settings on record: StrepII-FANCD2-loaded biosensors in 20 ng/mL solution; FANCI 62.5-1000 nM.

Regarding “Xenopus laevis Flag-FANCI wild type S557D; S560D; S566D; S597D; S618D; S630D”, in test [1], the on-rate constant (kon) came out at 39000 M⁻¹ s⁻¹.

B1: Xenopus laevis Flag-FANCI wild type S557A; S560A; S566A; S597A; S618A; S630A (protein)
chain: MDQKILSLAAEEQNDGLQSYLQNLKETELSEIITKHAVKGKDCGALLRGVFKGSPCSHDVAVRRRLAVYRHCIQLVESGDLQREVASEIMGLLMLEVHHFPGASLIELANLFADAVKAGTLSNGKSLDLFPTVLTALSSKESLAYGKGELTGEEFKKQLINSLCSSRWDPQSVIFLTSMFRDVSLSAEELQFVVEKVLRMLSKLDLQEMPPLVYQLLLLSAKGSKKNIVEGIITIFNDLDQKQLVQQENSESLDLEDATIPQDQLHHVEGTIILHIVFAIKLDQELGRELLKYLKAGQQGDSSKILCPFSAALLLSVSRIHRFQEQVFDFLKSTILRDYKDLQFHQSSKFLQDLVPQPVCVSSILLETVKNSVYGWDHVTQGLVELGFILMDSFGPKAAFGNKVVELISVHSRTPSQQACQLGSRILLETFKVHEPIRSEILEQVLNRVITKAATPVTHFIDLLSDIVVSAPLILQNSSSKVTEAFDHLSFLPLTTVQGLLKAVQPLLKISMSMRDSLILVLRKAMFSSQIDARKSAVAGFLLLLRNFKVLGSLSSAQCAQAIGAAQIQVDVHMRYNAAANEAFCLEILGSLRRCLAQQADVRLMLYEGFYDVLRRNAQLASSVMQTLLAQLKRYYEPEPDLLPPLKLEGCITAQGDHIFLQEPLAHLLCCIHHCLQWYKSSLQQHRNPDEDDDDDDQTGCQQDLNDIMESITRRMIKCDLEDFELDKSADFSLASGVGVKNNIYAVLVMGICEVLIEYNFIIANFSKSKFEDILGLFKCCSKLSDILKEKAAKGRQPGNNKTARSLISMTFVSTLLTALFRDSTRSHEESLSILRANVDFMRYSVCVALQKIQQLEETGVTDGPDGQNSEKMFRSLCEITRVLMWRYTSIPAAAENPGKKDKGKTISLLCLEGLLRVFNTVQQRYPSKIPQFLTALDALGDEDEEGSREINVTEKAAFQIKQFQRSLINQLSGGEDDFNSKEALLLVSILSTLSRLLAPSSQQFVQMLSWTVKICKETNIEDVQFCKGIMNLLFSLHVQFKSPVSVLRELCQDIHGHLGDIDQDIEVEKQSHFATVSLKTAAPTVTLLVLGQAAKVLEEVDWLIIKLKGLLGSEKLSTEDLTQTSNARVPIEKAIILQLGTLLTACHELVQTALPAGSCTDTLLKELAKMYTILTSVVKYYLQICSSHGGQISARLEKLVKLSGSHLTPQCYAFITYVQNIHSESLSLAAEKKKKKKEEALTVTSAKILRDTKPIPNLIFAIEQYEKFLIHLSKKSKVNLMQYMKLSTSRDFRINAATLDAALQEKGSEDEENEPDNEQAVTEEESQEPKKKRRRK
In test [2], B1 had a dissociation constant (Kd) of 10.1 nM and a koff of 9e-05 s⁻¹. Also, the kon in test [3] came out at 11000 M⁻¹ s⁻¹.
